B1: RHOBTB2 (parent)
chain: LYTGELDENERDLMHIAHIAELLE
B2: SAT2 (parent)
chain: GYGIYYFIYSTWKGRTIYLEDIYV

Variants of: B1
Experiment: protein stability index of a GFP-peptide fusion (GPS, HEK-293T) (PSI 1-6); higher = more stable
Conditions: c terminus: a fixed tail appended
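Note: lentivirally expressed fusions sorted by FACS into six bins by GFP to DsRed ratio, PSI derived from sequencing read proportions per bin multiplied by bin number.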

Protein stability index of substitutions, site by site:
E21: W 2.1 | H 1.8 | L 1.92 | D 2.77 | S 1.7 | M 2.12 | G 1.92 | R 1.85 | P 3.3 | T 1.75 | V 1.04 | A 1.72 | I 1.77 | C 2.37 | N 2.48 | Y 1.76 | F 1.74 | K 2.07 | Q 2.32
H18: N 3.47 | Q 1.82 | T 1.95 | K 3.54 | L 1.23 | M 2.71 | V 2.05 | R 2.38 | S 3.03 | Y 1.59 | W 2.11 | P 2.88
I19: C 3.3 | F 2.67 | A 3.38 | K 4.3 | G 4.45 | N 4.47 | Y 3.56 | H 3.62 | R 4.17 | W 2.28 | M 2.52 | L 2.31 | V 3.1 | P 4.81 | Q 3.37 | E 4.85 | S 3.26 | D 4.85 | T 3.79
L22: I 2.56 | T 3 | N 3.5 | D 4.26 | G 3.6 | H 3.76 | R 3.62 | M 2.18 | P 4.75 | Q 3.74 | Y 3.03 | K 3.67 | F 3.41 | S 3.66 | A 2.96 | V 2.72 | W 2.52 | C 2.79 | E 4.08
A20: N 3.74 | S 3.08 | F 1.97 | D 3.34 | E 3.85 | R 3.22 | Y 2.53 | M 2.01 | W 2.37 | I 2.14 | V 1.93 | Q 3.72 | K 2.99 | P 3.79 | T 2.76 | C 1.31 | H 3.54 | G 3.3 | L 1.61
E24: K 2.12 | A 3.44 | V 1.97 | L 2.18 | W 1.91 | N 2.42 | F 1.79 | S 2.22 | P 3.33 | H 2.21 | M 2.17 | G 2.85 | I 2 | D 2.94 | T 2.3 | Y 2.04 | C 2.04 | Q 2.38 | R 2.11
L23: D 4.28 | R 4.05 | P 4.28 | E 5.05 | M 3.3 | S 4.25 | F 2.41 | V 2.62 | W 2.55 | A 4.33 | Q 4.41 | C 3.58 | N 4.01 | I 2.66 | Y 3.31 | G 4.05 | T 3.99 | H 3.97 | K 3.93

Variants of: B2
Experiment: as above
Conditions: c terminus: a fixed tail appended

Protein stability index: each site, then its substitutions
G1: S 2.41 | Y 3.1 | H 2.72 | I 1.2 | L 3.6 | M 3.54 | R 2.21 | E 2.96 | C 1.66 | F 2.13
G3: P 2.7 | S 3.29 | C 2.12 | E 2.58 | K 2.62 | Y 2.19 | D 2.8 | I 1.59 | H 2.85 | F 4.2 | R 2.96
I4: M 3.54 | D 2.92 | G 1.88 | K 2.7 | H 2.53 | C 3.26 | A 3.19
Y2: W 2.38 | M 2.92 | I 3.75 | S 3.01 | Q 4.95 | R 2.58 | F 1.06 | N 3.27 | P 1.91 | C 2.61 | D 2.06 | H 3.91 | V 2.26

Reference: the supplement of paper PMC10567573
